Target: the molecule itself
Test: negative-stain electron microscopy

B1: desmin (natural protein, chicken, UniProt P02542 1-464, looked up)
chain: MSQSYSSSQRVSSYRRTFGGGTSPVFPRASFGSRGSGSSVTSRVYQVSRTSAVPTLSTFRTTRVTPLRTYQSAYQGAGELLDFSLADAMNQEFLQTRTNEKVELQELNDRFANYIEKVRFLEQQNALMVAEVNRLRGKEPTRVAEMYEEELRELRRQVDALTGQRARVEVERDNLLDDLQKLKQRLQEEIQLKEEAENNLAAFRADVDAATLARIDLERRIESLQEEIAFLKKVHEEEIRELQAQLQEQHIQVEMDISKPDLTAALRDIRAQYESIAAKNIAEAEEWYKSKVSDLTQAANKNNDALRQAKQEMLEYRHQIQSYTCEIDALKGTNDSLMRQMREMEERFAGEAGGYQDTIARLEEEIRHLKDEMARHLREYQDLLNVKMALDVEIATYRKLLEGEENRISIPMHQTFASALNFRETSPDQRGSEVHTKKTVMIKTIETRDGEVVSEATQQQHEVL
B1: binds.

— paper PMC5070455 (Biophysics, 2012)
